Source: paper PMC10397247
Read-outs that look alike come from different tables or passages of the source.

B1: 4H2253-AA (peptide)
chain: DKIAALEAENAALKAEIAALKAKIAALEG
B2: 4H1385-AA (peptide)
chain: DENAALEAKIAALKAKIAALKAEIAALEG
B3: 4H1626-AA (peptide)
chain: DENAALKAEIAALKAENAALKAEIAALKG
B4: 4H1142-AA (peptide)
chain: DENAALEAEIAALKAKNAALEAKIAALKG

Experiments:
Assay in all cases: two-hybrid library CCmax;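 further: natural log of median RNA to DNA barcode read ratio; higher means stronger binding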
4H909-AA = target: T1, 4H909-AA; conditions: mean of both orientations
T1 chain: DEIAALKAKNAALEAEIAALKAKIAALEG

4H458-AA = target: T2, 4H458-AA; conditions: mean of both orientations
T2 chain: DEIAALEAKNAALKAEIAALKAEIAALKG

4H310-AA = target: T3, 4H310-AA
T3 chain: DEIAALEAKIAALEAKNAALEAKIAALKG

4H745-AA = target: T4, 4H745-AA; conditions: mean of both orientations
T4 chain: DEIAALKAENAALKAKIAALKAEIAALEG

GCN2_T = conditions: mean of both orientations
4H2649-AA = target: T5, 4H2649-AA; conditions: mean of both orientations
T5 chain: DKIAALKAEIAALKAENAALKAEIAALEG

4H570-AA = target: T6, 4H570-AA; conditions: mean of both orientations
T6 chain: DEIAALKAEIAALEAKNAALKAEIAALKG

4H710-AA = target: T7, 4H710-AA; conditions: mean of both orientations
T7 chain: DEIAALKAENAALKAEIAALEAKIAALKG

4H891-AA = target: T8, 4H891-AA; conditions: mean of both orientations
T8 chain: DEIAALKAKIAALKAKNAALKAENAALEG

4H3753-AA = target: T9, 4H3753-AA; conditions: mean of both orientations
T9 chain: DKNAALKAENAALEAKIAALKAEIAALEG

4H2438-AA = target: T10, 4H2438-AA; conditions: mean of both orientations
T10 chain: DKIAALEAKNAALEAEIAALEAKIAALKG

4H2274-AA = target: T11, 4H2274-AA
T11 chain: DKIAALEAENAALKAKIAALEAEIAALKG

4H2725-AA = target: T12, 4H2725-AA; conditions: mean of both orientations
T12 chain: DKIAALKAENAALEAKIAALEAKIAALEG

4H3410-AA = target: T13, 4H3410-AA; conditions: mean of both orientations
T13 chain: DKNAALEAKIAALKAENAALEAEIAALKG

4H3009-AA = target: T14, 4H3009-AA; conditions: mean of both orientations
T14 chain: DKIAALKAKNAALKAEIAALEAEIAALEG

4H2253-AA = target: T15, 4H2253-AA
T15 chain: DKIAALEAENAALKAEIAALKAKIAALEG

4H2865-AA = target: T16, 4H2865-AA; conditions: mean of both orientations
T16 chain: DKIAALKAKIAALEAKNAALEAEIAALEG

4H3130-AA = target: T17, 4H3130-AA; conditions: mean of both orientations
T17 chain: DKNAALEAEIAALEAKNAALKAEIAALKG

4H2774-AA = target: T18, 4H2774-AA; conditions: mean of both orientations
T18 chain: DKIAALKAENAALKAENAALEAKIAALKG

4H_GCN4 = target: 4H_GCN4
4H930-AA = target: T19, 4H930-AA; conditions: mean of both orientations
T19 chain: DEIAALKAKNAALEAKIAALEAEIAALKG

4H_APH = target: T20, 4H_APH
T20 chain: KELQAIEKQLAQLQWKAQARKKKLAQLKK

4H3865-AA = target: T21, 4H3865-AA; conditions: mean of both orientations
T21 chain: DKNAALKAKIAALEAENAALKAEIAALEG

4H2698-AA = target: T22, 4H2698-AA; conditions: mean of both orientations
T22 chain: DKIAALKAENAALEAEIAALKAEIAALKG

4H2473-AA = target: T23, 4H2473-AA; conditions: mean of both orientations
T23 chain: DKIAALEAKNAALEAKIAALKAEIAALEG

4H536-AA = target: T24, 4H536-AA; conditions: mean of both orientations
T24 chain: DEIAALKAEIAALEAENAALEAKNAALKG

4H2330-AA = target: T25, 4H2330-AA; conditions: mean of both orientations
T25 chain: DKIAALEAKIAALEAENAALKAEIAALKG

4H629-AA = target: T26, 4H629-AA; conditions: mean of both orientations
T26 chain: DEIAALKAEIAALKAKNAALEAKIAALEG

4H3697-AA = target: T27, 4H3697-AA; conditions: mean of both orientations
T27 chain: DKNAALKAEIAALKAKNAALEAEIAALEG

4H3590-AA = target: T28, 4H3590-AA
T28 chain: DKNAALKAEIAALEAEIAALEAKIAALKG

4H2389-AA = target: T29, 4H2389-AA; conditions: mean of both orientations
T29 chain: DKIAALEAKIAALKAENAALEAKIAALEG

4H797-AA = target: T30, 4H797-AA; conditions: mean of both orientations
T30 chain: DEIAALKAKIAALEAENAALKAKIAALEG

4H3120-AA = target: T31, 4H3120-AA; conditions: mean of both orientations
T31 chain: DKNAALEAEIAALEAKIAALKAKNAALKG

4H3016-AA = target: T32, 4H3016-AA; conditions: mean of both orientations
T32 chain: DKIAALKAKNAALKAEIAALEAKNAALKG

4H3165-AA = target: T33, 4H3165-AA
T33 chain: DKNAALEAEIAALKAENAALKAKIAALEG

4H384-AA = target: T34, 4H384-AA; conditions: mean of both orientations
T34 chain: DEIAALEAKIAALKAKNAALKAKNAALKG

4H2611-AA = target: T35, 4H2611-AA; conditions: mean of both orientations
T35 chain: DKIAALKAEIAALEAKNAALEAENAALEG

4H3606-AA = target: T36, 4H3606-AA; conditions: mean of both orientations
T36 chain: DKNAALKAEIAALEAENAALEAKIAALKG

4H697-AA = target: T37, 4H697-AA; conditions: mean of both orientations
T37 chain: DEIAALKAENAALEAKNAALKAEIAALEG

4H3631-AA = target: T38, 4H3631-AA
T38 chain: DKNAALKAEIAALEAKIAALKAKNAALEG

4H982-AA = target: T39, 4H982-AA; conditions: mean of both orientations
T39 chain: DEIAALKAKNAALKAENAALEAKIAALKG

4H3718-AA = target: T40, 4H3718-AA; conditions: mean of both orientations
T40 chain: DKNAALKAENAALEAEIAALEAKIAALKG

Chain of 4H_GCN4 (chain, as listed by the source): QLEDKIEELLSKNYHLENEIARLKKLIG

| Binder | interaction score (4H909-AA) | interaction score (4H458-AA) | interaction score (4H745-AA) | interaction score (4H2649-AA) | interaction score (4H570-AA) | interaction score (4H710-AA) | interaction score (4H891-AA) | interaction score (4H3753-AA) | interaction score (4H2438-AA) | interaction score (4H2725-AA) | interaction score (4H3410-AA) | interaction score (4H3009-AA) | interaction score (4H2865-AA) | interaction score (4H3130-AA) | interaction score (4H930-AA) | interaction score (4H3865-AA) | interaction score (4H2698-AA) | interaction score (4H2473-AA) | interaction score (4H536-AA) | interaction score (4H2330-AA) | further results |
| --- | --- | --- | --- | --- | --- | --- | --- | --- | --- | --- | --- | --- | --- | --- | --- | --- | --- | --- | --- | --- | --- |
| B1 | -0.788 | 0.0604 | 0.647 | -1.27 | -1.41 | 0.741 | -1.7 | -1.13 | -0.259 | -0.468 | -0.76 | 0.841 | -1.42 | -1.14 | -1.04 | -1.13 | 0.72 | -1.02 | -1.37 | -1.14 | interaction score (4H310-AA): -0.688; interaction score (GCN2_T): -1.56; interaction score (4H2274-AA; mean of both orientations): -0.65; interaction score (4H2253-AA): 2.28; interaction score (4H2774-AA): -0.645; interaction score (4H_GCN4): -1.12; interaction score (4H_APH): -1.1; interaction score (4H629-AA): -1.74; interaction score (4H3697-AA): -1.65; interaction score (4H3590-AA): -1.09; interaction score (4H2389-AA): -1.29; interaction score (4H797-AA): -1.07; interaction score (4H3120-AA): -1.77; interaction score (4H3016-AA): -0.709; interaction score (4H3165-AA; mean of both orientations): -1.44 |
| B2 | -1.36 | -0.706 | -1.3 | -1.29 | -0.556 | -0.564 | -1.56 | -0.82 | 1.55 | 0.284 | -0.247 | 1.33 | -0.751 | -0.837 | -1.18 | -1.52 | 0.136 | -0.93 | 1.04 | -1.41 | interaction score (4H310-AA; mean of both orientations): -0.553; interaction score (GCN2_T): -1.2; interaction score (4H2274-AA; mean of both orientations): -0.953; interaction score (4H384-AA): -0.727; interaction score (4H2253-AA; mean of both orientations): -1.44; interaction score (4H_GCN4): -1.45; interaction score (4H_APH; mean of both orientations): -1.13; interaction score (4H629-AA): -1.12; interaction score (4H3697-AA): -0.69; interaction score (4H3590-AA; mean of both orientations): 2.4; interaction score (4H2389-AA): -1.15; interaction score (4H797-AA): -1.08; interaction score (4H3120-AA): 0.706; interaction score (4H3016-AA): -0.959; interaction score (4H3165-AA): -1.48 |
| B3 | -1.36 | -1.65 | -1.25 | 0.931 | 0.298 | -1.04 | -1.64 | -1.54 | -1.65 | -1.77 | -0.738 | -1.64 | -1.68 | -0.637 | -1.25 | -0.626 | -1.09 | -1.45 | -1.73 | -1.37 | interaction score (4H310-AA; mean of both orientations): -1.28; interaction score (4H2274-AA; mean of both orientations): -1.5; interaction score (4H2253-AA; mean of both orientations): -1.52; interaction score (4H2774-AA): -1.46; interaction score (4H2611-AA): -1.57; interaction score (4H629-AA): -1.63; interaction score (4H3697-AA): -1.21; interaction score (4H3590-AA; mean of both orientations): -1.51; interaction score (4H2389-AA): -1.4; interaction score (4H797-AA): -1.41; interaction score (4H3120-AA): -1.91; interaction score (4H3016-AA): -1.84; interaction score (4H3165-AA; mean of both orientations): -0.447 |
| B4 | -1.05 | -1.34 | -1.19 | 0.913 | -0.319 | -1.52 | -1.23 | -2.1 | -0.434 | -1.15 | 0.438 | -0.415 | 1.33 | 0.0677 | -1.1 | 0.444 | -1.05 | -2.06 | -1.1 | -1.84 | interaction score (4H310-AA): -1.4; interaction score (4H3606-AA): 1.65; interaction score (4H2274-AA): -1.11; interaction score (4H384-AA): -1.72; interaction score (4H2253-AA; mean of both orientations): -1.49; interaction score (4H697-AA): -1.71; interaction score (4H2611-AA): -0.194; interaction score (4H3631-AA): -1.43; interaction score (4H982-AA): -1.22; interaction score (4H629-AA): 0.124; interaction score (4H3697-AA): 2.08; interaction score (4H3590-AA; mean of both orientations): 0.23; interaction score (4H2389-AA): -0.327; interaction score (4H3718-AA): -1.33; interaction score (4H797-AA): -1.29; interaction score (4H3120-AA): -1.55; interaction score (4H3016-AA): 0.156; interaction score (4H3165-AA; mean of both orientations): -0.754 |
